Experimental findings from publication PMC4815241 (Protein Science : A Publication of the Protein Society, 2015) are described below.

The target of experiment [1] is eIF4GII_(551–745)/eIF4E complex (human | murine) (UniProt O43432). Briefly: ITC.
The target is the same in experiment [2]. Briefly: SEC-MALS. In general terms: Size exclusion chromatography separates by hydrodynamic size, large species first.

Sequence of eIF4GII_(551–745)/eIF4E complex (human | murine) (O43432 551-745, chain 1 of 2): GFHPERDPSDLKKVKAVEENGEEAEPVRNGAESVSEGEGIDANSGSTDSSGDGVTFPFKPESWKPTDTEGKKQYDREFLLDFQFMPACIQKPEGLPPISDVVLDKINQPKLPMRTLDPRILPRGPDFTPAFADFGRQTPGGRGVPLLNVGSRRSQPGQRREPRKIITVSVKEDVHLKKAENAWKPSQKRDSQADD
Sequence of eIF4GII_(551–745)/eIF4E complex (human | murine) (P63073 whole entry, chain 2 of 2, further chain): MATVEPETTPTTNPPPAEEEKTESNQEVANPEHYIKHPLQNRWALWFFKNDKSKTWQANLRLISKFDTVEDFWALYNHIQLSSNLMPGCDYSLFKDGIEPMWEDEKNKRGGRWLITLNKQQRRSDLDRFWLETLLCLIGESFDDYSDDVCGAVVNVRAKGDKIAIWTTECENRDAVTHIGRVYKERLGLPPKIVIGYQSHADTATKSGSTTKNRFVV

Regarding “FMDV leader proteinase, shortened form, sLb^proC51A (FMDV residues 29–195) (enzyme)”, the Kd (commonly the constant that tells how readily two partners part at equilibrium) in experiment [1] is 33 nM. The stoichiometry N (as a rule, a count of units in the complex or per binding partner) in experiment [2] came out at 1.
